Drawing on article PMC8117158, this text covers fold fluorescence over the control for two substances.

For experiment [1], the target named is IscU^N–GFP (E. coli K-12) (UniProt P0ACD4). Nature of the experiment: split reporter (BiFC, NanoBiT); BiFC by reconstitution of GFP from N-GFP and C-GFP fusions co-expressed in E. coli BL21(DE3) Gold; fluorescence microscopy of cells on agarose slides, normalised to empty vectors.
Experiment [2] concerns the target IscS^C–GFP (E. coli K-12) (UniProt P0A6B7). The description is as above.
Chain of UniProt P0A6B7 (P0A6B7 whole entry): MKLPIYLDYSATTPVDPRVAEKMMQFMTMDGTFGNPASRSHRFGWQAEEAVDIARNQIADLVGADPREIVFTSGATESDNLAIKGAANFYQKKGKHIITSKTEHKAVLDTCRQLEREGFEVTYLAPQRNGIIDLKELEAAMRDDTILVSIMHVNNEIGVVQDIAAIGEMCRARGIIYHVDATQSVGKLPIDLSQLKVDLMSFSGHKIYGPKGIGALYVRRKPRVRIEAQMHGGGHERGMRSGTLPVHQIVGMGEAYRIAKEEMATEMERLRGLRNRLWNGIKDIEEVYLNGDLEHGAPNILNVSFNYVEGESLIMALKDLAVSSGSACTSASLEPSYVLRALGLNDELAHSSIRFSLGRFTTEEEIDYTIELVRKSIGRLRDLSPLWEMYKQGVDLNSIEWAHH

Chain of UniProt P0ACD4 (P0ACD4 whole entry, the tested form may be a part): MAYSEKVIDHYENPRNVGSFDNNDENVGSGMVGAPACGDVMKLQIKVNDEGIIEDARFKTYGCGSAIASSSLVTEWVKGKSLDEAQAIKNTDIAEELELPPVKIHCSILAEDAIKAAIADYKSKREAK

For the substance “YtfE^C–GFP (from UniProt P69506 1-220) (natural protein)”, the fold fluorescence over the control in experiment [1] was 3 fold.

“YtfE^N–GFP (from UniProt P69506 1-220) (natural protein)” showed a fold fluorescence over the control in experiment [2] of 6 fold.
